From patent US20250382355A1 (Merck Sharp & Dohme, published 2025)

Columns and labels:
[1] = molecular target: T1, SARS-CoV-2 prefusion-stabilized spike protein (SARS-CoV-2-PreS) (SARS-CoV-2, UniProt P0DTC2 14-1208); assay: ELISA
[2] = molecular target: T2, Biotinylated CoV2 Spike ECD PreS-AVI protein (SARS-CoV-2, UniProt P0DTC2 14-1208); assay: Octet binning; competitor 19B8
[3] = molecular target: T1, SARS-CoV-2 prefusion-stabilized spike …; assay: Biacore, apparent affinity
[4] = molecular target: T2, Biotinylated CoV2 Spike ECD PreS-AVI …; assay: Octet binning; competitor 20D11
[5] = molecular target: T2, Biotinylated CoV2 Spike ECD PreS-AVI …; assay: Octet binning; competitor 7A9
[6] = molecular target: T2, Biotinylated CoV2 Spike ECD PreS-AVI …; assay: Octet binning; competitor Std-D
[7] = molecular target: T2, Biotinylated CoV2 Spike ECD PreS-AVI …; assay: Octet binning; competitor Std-A
[8] = molecular target: T2, Biotinylated CoV2 Spike ECD PreS-AVI …; assay: Octet binning; competitor 1A11
[9] = molecular target: T2, Biotinylated CoV2 Spike ECD PreS-AVI …; assay: Octet binning; competitor 11F8
[10] = molecular target: SARS-CoV-2 Beta B.1.351 spike on pseudovirus (SARS-CoV-2); assay: cell-based or functional assay
[11] = molecular target: SARS-CoV-2 Alpha B.1.1.7 spike on pseudovirus (SARS-CoV-2); assay: cell-based or functional assay
[12] = molecular target: SARS-CoV-2 Omicron spike on pseudovirus (SARS-CoV-2); assay: cell-based or functional assay
[13] = molecular target: SARS-CoV-2 Gamma P.1 spike on pseudovirus (SARS-CoV-2); assay: cell-based or functional assay
[14] = molecular target: T2, Biotinylated CoV2 Spike ECD PreS-AVI …; assay: Octet binning; competitor 15H1
[15] = molecular target: T2, Biotinylated CoV2 Spike ECD PreS-AVI …; assay: Octet binning; competitor Std-B
[16] = molecular target: T2, Biotinylated CoV2 Spike ECD PreS-AVI …; assay: Octet binning; competitor 9B2
[17] = molecular target: T2, Biotinylated CoV2 Spike ECD PreS-AVI …; assay: Octet binning; competitor 8E9
[18] = molecular target: T2, Biotinylated CoV2 Spike ECD PreS-AVI …; assay: Octet binning; competitor 13C8
[19] = molecular target: T2, Biotinylated CoV2 Spike ECD PreS-AVI …; assay: Octet binning; competitor 15H7

Row | Binder | EC50 [1] [nM] | binning response [2] | Kd [3] [nM] | binning response [4] | binning response [5] | binning response [6] | binning response [7] | binning response [8] | binning response [9] | pseudovirus neutralization IC50 [10] [nM] | pseudovirus neutralization IC50 [11] [nM] | pseudovirus neutralization IC50 [12] [nM] | pseudovirus neutralization IC50 [13] [nM] | binning response [14] | binning response [15] | binning response [16] | binning response [17] | binning response [18] | binning response [19]
1 | 20D11 VHH-Fc (Fc fusion) QVQLVESGGGLVQAGGSLRLSCAASGRTSSIYSVGWFRQAPGKERELVAGITWSGGTTYYSDSVKGRFTISRDNAKNTVNLQMNNLKPEDTAIYYCAVDRYSMTMSARDYDYWGQGTQVTVSS | 0.62 | 0.43 | < 0.2 | 0.04 | – | – | – | – | – | – | – | – | – | – | – | – | – | – | –
2 | 5G11 VHH-Fc (Fc fusion) QVQLVESGGGLVQAGGSLRLSCAASGRTFSIYAVGWFRQAPGKERDFVAGITWSGGTTYYSDSVKGRFTISRDNAKNTVYLQMNNLKPEDTAIYYCAVDTYSMTLSARSYDYWGQGTQVTVSS | 0.4 | 0.4 | 1.5 | 0.05 | – | – | – | – | – | – | – | – | – | – | – | – | – | – | –
3 | 14F3 VHH-Fc (Fc fusion) QVQLVESGGGLVQAGGSLRLSCAASGRTSSIYGVGWFRQAPGKERELVALITWSGGTTYYSDSVKGRFTISKDNAKNTVFLQMNNLKPEDTAIYYCAVDTYSMTMSARDYEYWGQGTQVTVSS | 0.05 | 0.46 | < 0.2 | 0.04 | – | – | – | – | – | – | – | – | – | – | – | – | – | – | –
4 | 16H7 VHH-Fc (Fc fusion) QVQLVESGGGLVQAGGSLRLSCAASGRAFSKDTMGWFRQAPGKEREFVAVISASGDSTYYADFVKGRFTISRDNAKNTEYLQMNSLKPEDTAVYHCAADGARAYYSINAHRYSWAYNYWGQGTQVTVSS | 0.08 | 0.19 | 3 | 0.56 | – | – | – | – | – | – | – | – | – | – | – | – | – | – | –
5 | 10B8 VHH-Fc (Fc fusion) QVQLVESGGGLVQPGGSLRLSCAASGITLDYYAIAWFRQAPGKEREGVSCFCSSDGDIRYADSVKGRFTISRDNAKNTVYLQMNSLKPEDTAVYYCATERVYSSTWFFHRYSELDFGSWGRGTQVTVSS | 1.35 | – | < 0.2 | – | 0.42 | 0.05 | 0.39 | 0.1 | 0.1 | 0.23 | 0.38 | 4.1 | 0.21 | 0.12 | 0.36 | 0.12 | 0.09 | 0.12 | 0.12
6 | 19E10 VHH-Fc (Fc fusion) QVQLVESGGGLVQPGGSLRLSCVASGSTISINSMGWYRQAPGKAREMVATITNDGPIKYADPVKGRFTISRDNPKNTVYLQMNSLKPEDTAVYYCVADRAYWLAGEWEYWGQGTQVTVSS | 0.03 | – | < 0.2 | – | 0.3 | 0.06 | 0.26 | 0.08 | 0.12 | 3.1 | 7 | 309 | 5.9 | 0.12 | 0.22 | 0.11 | 0.09 | 0.11 | 0.11
7 | 11F5 VHH-Fc (Fc fusion) QVQLVESGGGAVQAGDSLRLSCTASGRTFSTYAVGWFRQAPGKERELLAAITGSGRNPYYPDSLKGRFTISREYAKLPVYLQMNSLKPEDTAVYYCAARRGAIATMPLDYDHWGQGTQVTVSS | 0.12 | 0.52 | < 0.2 | 0.1 | – | – | – | – | – | – | – | – | – | – | – | – | – | – | –
8 | 6A1 VHH-Fc (Fc fusion) QVQLVESGGGLVQAGGSLRLSCTASGNIFSVNVMGWHRQAPGKRRELVAALTNDGRRNYADSVKGRFTISRDNAKNTIYLEMNSLKPEDTAVYYCGTGTLESGFNSWGQGLQVTVSS | 0.44 | 0.4 | 1.6 | 0.37 | – | – | – | – | – | – | – | – | – | – | – | – | – | – | –
